# T1: hMMP-7 (Homo sapiens, UniProt P09237 P09237:95-267)
# T1 sequence: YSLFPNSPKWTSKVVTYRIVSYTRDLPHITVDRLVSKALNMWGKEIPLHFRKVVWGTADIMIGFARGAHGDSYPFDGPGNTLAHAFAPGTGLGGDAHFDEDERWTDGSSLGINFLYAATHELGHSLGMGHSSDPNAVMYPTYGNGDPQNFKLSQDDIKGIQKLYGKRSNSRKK
# T2: pro-hMMP-7 (Homo sapiens, UniProt P09237 P09237:18-267)
# T2 sequence: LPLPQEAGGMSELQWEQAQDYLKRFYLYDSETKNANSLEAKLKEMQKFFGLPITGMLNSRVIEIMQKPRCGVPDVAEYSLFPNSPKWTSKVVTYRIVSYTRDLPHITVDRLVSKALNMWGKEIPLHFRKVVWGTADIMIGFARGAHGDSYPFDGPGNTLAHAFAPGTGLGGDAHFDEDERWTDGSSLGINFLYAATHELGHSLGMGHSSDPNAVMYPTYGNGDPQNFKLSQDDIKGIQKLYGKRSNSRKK
# Experiments:
# [1] = molecular target: T3, hMMP-9 (gelatinase B) (Homo sapiens, UniProt P14780 P14780:107-707); test: SPR; no detectable signal; settings: tags: Calbiochem
# Description: (§1) Surface Plasmon Resonance (SPR) experiments were performed on a BIAcore™ 3000 apparatus (Biacore AB, Sweden). 2 μg of hMMP-9 protein were injected on a carboxymethylated dextran CM5 sensorchip for immobilisation and aptamers F3B, F3C1 and F3C2 were injected at 200 nM (20 μl/min) in SP buffer. Alternatively CM5 sensorchips were functionalized with streptavidin. 3′ end biotinylated F3B and F3Bomf were immobilised on the functionalized CM5 and hMMP-9 protein at 100 nM in SP buffer was injected. hMMP-9 was injected at different concentrations (from 5 to 160 nM) in PBS buffer. In another series of experiments 3′end biotinylated aptamer F3Bomf was immobilized and hMMP-9, pro-hMMP-9, mouse pro-MMP-9, human MMP-2 or MMP-7 proteins were injected at 50 nM in PBS buffer. SPR experiments were performed at 23° C., at 20 μl/min, and the complexes were dissociated with a pulse of a solution containing 40% formamide/3.6 M urea/30 mM EDTA (42).
# Next we optimized the F3B chemistry in the perspective of its use in biological media. […] However the equilibrium constant was evaluated to be in the low nanomolar range. […] In contrast, F3Bomf was able to discriminate between the human and the murine zymogen pro-MMP-9: a weak signal (49 RU) to the mouse pro-MMP-9 was detected, compared to about 1 300 RU with the human proenzyme.
# [2] = molecular target: T1, hMMP-7; test: filter; no retention; settings: label: 32P 5' end; imperfect hairpin
# [3] = molecular target: T2, pro-hMMP-7; test: filter; no retention; settings: label: 32P 5' end; imperfect hairpin
# [4] = molecular target: T3, hMMP-9 (gelatinase B); test: filter; SP buffer (5 mM CaCl2, 1 mM Mg acetate), 23 C; settings: tags: Calbiochem; label: 32P 5' end; imperfect hairpin
# Description: The dissociation constant (Kd) of the complexes, formed by the aptamers and the hMMP-9 protein, was determined using the filter retention method. 1 nM of ³²P 5′end-labeled aptamer was incubated with increasing concentrations of hMMP-9 (10, 20, 40, 72, 160, 320, 500 nM) for 20 min at 23° C. in 20 μl SP buffer. Complexes were filtered and the radioactivity retained on the filter was quantified using a scintillation counter (LS 6000 IC, Beckman). Kd values were deduced from data point fitting with Kaleidagraph 3.0 (Abelbeck software), according to the equation: B=(Bmax[L]₀)/([…]), where B is the proportion of complex, Bmax is the maximum of complex formed and [L]₀ is the total concentration of unlabeled ligand.
# [5] = molecular target: T1, hMMP-7; test: SPR; 50 nM protein, PBS; settings: label: 3' biotin; hairpin
# Description: as §1
# [6] = molecular target: hMMP-2 (gelatinase A) (Homo sapiens, UniProt P08253 P08253:110-660); test: SPR; 50 nM protein, PBS; settings: label: 3' biotin; hairpin
# Description: as §1
# T3 sequence (P14780 107-707, one chain of several): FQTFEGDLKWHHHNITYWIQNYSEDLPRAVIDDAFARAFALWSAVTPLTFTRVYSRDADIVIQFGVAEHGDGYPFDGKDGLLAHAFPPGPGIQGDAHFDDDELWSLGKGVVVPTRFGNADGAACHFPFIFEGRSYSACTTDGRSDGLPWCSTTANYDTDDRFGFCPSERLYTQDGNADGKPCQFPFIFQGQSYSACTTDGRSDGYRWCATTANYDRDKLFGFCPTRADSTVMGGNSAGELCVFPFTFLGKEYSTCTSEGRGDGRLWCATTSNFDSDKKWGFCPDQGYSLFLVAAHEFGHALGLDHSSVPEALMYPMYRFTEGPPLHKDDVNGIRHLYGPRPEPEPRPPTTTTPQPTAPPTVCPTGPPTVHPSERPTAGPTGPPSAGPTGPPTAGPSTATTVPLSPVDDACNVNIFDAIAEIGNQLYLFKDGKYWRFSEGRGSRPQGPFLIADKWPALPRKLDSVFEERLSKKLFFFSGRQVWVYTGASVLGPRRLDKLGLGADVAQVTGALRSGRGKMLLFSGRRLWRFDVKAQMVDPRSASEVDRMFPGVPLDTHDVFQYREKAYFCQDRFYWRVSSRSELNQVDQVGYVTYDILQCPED
# Chain of hMMP-2 (gelatinase A) (P08253 110-660, one chain of several): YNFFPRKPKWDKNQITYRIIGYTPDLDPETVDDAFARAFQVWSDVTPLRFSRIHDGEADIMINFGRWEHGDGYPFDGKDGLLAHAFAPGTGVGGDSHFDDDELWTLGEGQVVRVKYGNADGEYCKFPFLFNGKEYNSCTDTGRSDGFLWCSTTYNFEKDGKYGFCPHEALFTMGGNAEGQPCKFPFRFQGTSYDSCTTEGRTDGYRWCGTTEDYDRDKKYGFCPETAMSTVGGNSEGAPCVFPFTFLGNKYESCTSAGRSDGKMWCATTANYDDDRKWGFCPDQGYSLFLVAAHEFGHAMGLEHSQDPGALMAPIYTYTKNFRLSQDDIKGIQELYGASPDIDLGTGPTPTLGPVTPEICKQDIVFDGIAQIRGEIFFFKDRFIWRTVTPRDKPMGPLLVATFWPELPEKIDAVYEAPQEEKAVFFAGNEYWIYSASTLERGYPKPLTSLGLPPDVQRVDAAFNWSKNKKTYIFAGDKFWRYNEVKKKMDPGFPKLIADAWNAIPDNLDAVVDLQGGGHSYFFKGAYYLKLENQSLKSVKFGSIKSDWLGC
binder,measurement,setting,value
"UGCCAAACGCGUCCCCUUUGCCCGGCCUCCGCCGCA (XNA, 2'-F pyrimidines, 2'-OMe purines) [control scrambled sequence]",binding result,[1],no binding
"F3 (ssRNA, 2'-F pyrimidines, 2'-OH purines) RNA: GGUUACCAGCCUUCACUGCCCUGCCCUCACCCGUUAGCCUGAGCGCCCCGCACCACGGUCGGUCACAC",binding result,[2],no binding
same,binding result,[3],no binding
same,Kd,[4],8.1 nM
"UGCCCUGCCCUCACCCGUUAGCCUGAGCGCCCCGCA (XNA, 2'-F pyrimidines, 2'-OMe purines) [F3Bomf]",binding result,[5],no binding
same,binding result,[6],no binding

# Source: patent publication US20150337308, “MATRIX METALLOPROTEINASE 9 (MMP-9) APTAMER AND USES THEREOF” (CHU DE BORDEAUX, published 2015)
